What is called Km is the concentration of substrate that gives half-maximal velocity.

In the series the test system is C=C(OP(=O)(O)O)C(=O)O. The series can be described thus: Steady-state ATP production by pyruvate kinase monitored by Rho-MatB. Type of series: biochemical, rabbit. Conditions: pH 7.5.
Where [1] appears, read: other: single curve fit, Figure 6B, 250 μM ADP, 20 °C.

With pyruvate kinase (Oryctolagus cuniculus), under “other: n = 5, 20.0 °C”, the Km was determined as 103 µM. Further, under setting [1], the Km amounted to 75.5 ± 3.4 µM and the Vmax is given as 0.019 ± 0.002 μM s^–1.
